Residue numbers refer to the chain shown, from its start.
T1: IL-2R CD122-CD132 on Jurkat-PD1+ CD122+ cells (UniProt P14784 27-551; P31785 23-369)
T1 sequence (looked up) 1: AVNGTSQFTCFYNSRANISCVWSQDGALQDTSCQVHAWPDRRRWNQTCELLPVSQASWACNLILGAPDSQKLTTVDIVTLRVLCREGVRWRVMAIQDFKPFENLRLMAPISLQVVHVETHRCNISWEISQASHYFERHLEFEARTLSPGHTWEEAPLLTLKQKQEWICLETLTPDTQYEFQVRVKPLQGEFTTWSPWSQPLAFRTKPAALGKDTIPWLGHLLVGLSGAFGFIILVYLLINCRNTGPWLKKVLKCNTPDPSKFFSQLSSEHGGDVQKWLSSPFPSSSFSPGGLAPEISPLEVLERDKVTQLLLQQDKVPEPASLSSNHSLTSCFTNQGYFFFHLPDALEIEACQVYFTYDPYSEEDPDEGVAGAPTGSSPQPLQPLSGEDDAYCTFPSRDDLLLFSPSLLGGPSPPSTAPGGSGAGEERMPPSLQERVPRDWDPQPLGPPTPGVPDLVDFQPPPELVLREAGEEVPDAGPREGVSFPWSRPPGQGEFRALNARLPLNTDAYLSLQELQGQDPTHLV
T1 sequence (looked up) 2: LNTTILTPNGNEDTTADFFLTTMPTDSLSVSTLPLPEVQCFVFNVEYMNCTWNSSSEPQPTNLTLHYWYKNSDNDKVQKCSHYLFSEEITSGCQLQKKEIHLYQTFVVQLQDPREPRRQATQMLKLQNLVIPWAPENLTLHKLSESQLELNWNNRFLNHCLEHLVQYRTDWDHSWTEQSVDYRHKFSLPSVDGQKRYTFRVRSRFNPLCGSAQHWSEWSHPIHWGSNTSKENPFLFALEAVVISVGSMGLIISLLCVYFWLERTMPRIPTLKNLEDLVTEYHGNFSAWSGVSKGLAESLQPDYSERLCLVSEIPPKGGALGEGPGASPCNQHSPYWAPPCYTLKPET

B1: z5-XVT458 (antibody, human IgG1, kappa, V domains shown)
VH: QVQLVQSGAEVKKPGASVKVSCKASGYTFTNFYIHWVRQAPGQGLEWMGSIYPNYGDTAYNQKFKDRATMTTDKSTSTAYMELRSLRSDDTAVYYCARGYSYAMDYWGQGTTVTVSS
VL: DIQMTQSPSSVSASVGDRVTITCSASQGISGDLNWYQQKPGKAPKLLIYHTSSLHSGVPSRFSGSGSGTDFTLTISSLQPEDFATYYCQYYSKDLLTFGGGTKLEIKR
notes: full hIgG1 format
B2: JLI141 (bispecific antibody, human IgG1, lambda, L234A L235A)
chain 1: EVQLLESGGGLVQPGGSLRLSCAASGFTFSINAMTWVRQAPGKGLEWVSTISGSGFSTYYADSLKGRFTISRDNSKNTLYLQMNSLRAEDTAVYYCAKEVYGDYWGQGTLVTVSSASTKGPSVFPLAPSSKSTSGGTAALGCLVKDYFPEPVTVSWNSGALTSGVHTFPAVLQSSGLYSLSSVVTVPSSSLGTQTYICNVNHKPSNTKVDKRVEPKSCDKTHTCPPCPAPEAAGGPSVFLFPPKPKDTLMISRTPEVTCVVVDVSHEDPEVKFNWYVDGVEVHNAKTKPREEQYNSTYRVVSVLTVLHQDWLNGKEYKCKVSNKALAAPIEKTISKAKGQPREPQVYTLPPSREEMTKNQVSLTCLVKGFYPSDIAVEWESNGQPENNYKTTPPVLDSDGSFFLTSKLTVDKSRWQQGNVFSCSVMHEALHNHYTQKSLSLSPGK
chain 2: not shown
chain 3: AIRLTQSPSSFSASTGDRVTITCKASQSVDYGGGNFHLRPRDLISNINVIVLELKGSETTFMCEYADETATIVEFLNRWITFSQSIISTLTPTSSSTKKTQLQLEHLLLDLQMILNGINNYKNPKLTRMLTFKFYMPKKATELKHLQCLEEELKPLEEVLNLAQSKGGGGDSYMNWYQQKPGKAPKLLIYAASNLESGVPSRFSGSGSGTDFTLTISSLQSEDFATYYCQQSNEDPYTFGGGTKVEIKGGGGSGGGGSGGGGSEVQLVQSGAEVKKPGESLKISCKGSGYAFTNYLIEWVRQMPGKGLEWMGVINPGSGGTNYNEKFKGQVTISADKSISTAYLQWSSLKASDTAMYYCARWRGEGYYAYFDVWGQGTTVTVSSGGGGSGGGGSEVQLLESGGGLVQPGGSLRLSCAASGFTFSINAMTWVRQAPGKGLEWVSTISGSGFSTYYADSLKGRFTISRDNSKNTLYLQMNSLRAEDTAVYYCAKEVYGDYWGQGTLVTVSSASTKGPSVFPLAPSSKSTSGGTAALGCLVKDYFPEPVTVSWNSGALTSGVHTFPAVLQSSGLYSLSSVVTVPSSSLGTQTYICNVNHKPSNTKVDKRVEPKSCDKTHTCPPCPAPEAAGGPSVFLFPPKPKDTLMISRTPEVTCVVVDVSHEDPEVKFNWYVDGVEVHNAKTKPREEQYNSTYRVVSVLTVLHQDWLNGKEYKCKVSNKALAAPIEKTISKAKGQPREPQVYTLPPSREEMTKNQVSLYCLVKGFYPSDIAVEWESNGQPENNYKTTPPVLDSDGSFFLYSKLTVDKSRWQQGNVFSCSVMHEALHNHYTQKSLSLSPGK
B3: LTJ498 (bispecific antibody, human IgG1, lambda, L234A L235A)
chain 1: B2 chain 1
chain 2: not shown
chain 3: B2 chain 3
B4: QAB373 (bispecific antibody, human IgG1, kappa, L234A L235A)
chain 1: QVQLVQSGAEVKKPGASVKVSCKASGYTFTNFYIHWVRQAPGQGLEWMGSIYPNYGITAYNQKFKDRVTMTVDTSTSTAYMELRSLRSDDTAVYYCARGYSYAMDYWGQGTTVTVSSASVAAPSVFIFPPSDEQLKSGTASVVCLLNNFYPREAKVQWKVDNALQSGNSQESVTEQDSKDSTYSLSSTLTLSKADYEKHKVYACEVTHQGLSSPVTKSFNRGECDKTHTCPPCPAPEAAGGPSVFLFPPKPKDTLMISRTPEVTCVVVDVSHEDPEVKFNWYVDGVEVHNAKTKPREEQYNSTYRVVSVLTVLHQDWLNGKEYKCKVSNKALAAPIEKTISKAKGQPREPQVYTLPPSREEMTKNQVSLTCLVKGFYPSDIAVEWESNGQPENNYKTTPPVLDSDGSFFLTSKLTVDKSRWQQGNVFSCSVMHEALHNHYTQKSLSLSPGK
chain 2: DIQMTQSPSSVSASVGDRVTITCSASQGISGDLNWYQQKPGKAPKLLIYHTSQLHSDVPSRFSGSGSGTDFTLTISSLQPEDFATYYCQGYSKDLLTFGGGTKLEIKSSASTKGPSVFPLAPSSKSTSGGTAALGCLVKDYFPEPVTVSWNSGALTSGVHTFPAVLQSSGLYSLSSVVTVPSSSLGTQTYICNVNHKPSNTKVDKRVEPKSC
chain 3: EVQLVQSGAEVKKPGESLKISCKGSGYAFTNYLIEWVRQMPGKGLEWMGVINPGSGGTNYNEKFKGQVTISADKSISTAYLQWSSLKASDTAMYYCARWRGEGYYAYFDVWGQGTTVTVSSASTKGPSVFPLAPSSKSTSGGTAALGCLVKDYFPEPVTVSWNSGALTSGVHTFPAVLQSSGLYSLSSVVTVPSSSLGTQTYICNVNHKPSNTKVDKRVEPKSCDKTHTCPPCPAPEAAGGPSVFLFPPKPKDTLMISRTPEVTCVVVDVSHEDPEVKFNWYVDGVEVHNAKTKPREEQYNSTYRVVSVLTVLHQDWLNGKEYKCKVSNKALAAPIEKTISKAKGQPREPQVYTLPPSREEMTKNQVSLYCLVKGFYPSDIAVEWESNGQPENNYKTTPPVLDSDGSFFLYSKLTVDKSRWQQGNVFSCSVMHEALHNHYTQKSLSLSPGK
chain 4: not shown
B5: XWY176 (bispecific antibody, human IgG1, kappa, lambda, L234A L235A)
chain 1: B2 chain 1
chain 2: not shown
chain 3: B4 chain 3
chain 4: not shown
B6: GQM289 (bispecific antibody, human IgG1, kappa, lambda, L234A L235A)
chain 1: B2 chain 1
chain 2: not shown
chain 3: B4 chain 3
chain 4: not shown
B7: RIB426 (bispecific antibody, human IgG1, kappa, L234A L235A)
chain 1: B4 chain 1 with S50R
chain 2: B4 chain 2 with L54R
chain 3: B4 chain 3
chain 4: not shown

Each binder was assayed against T2, cynoPD-1 His (AcroBiosystems PD1-C5223) (cynomolgus monkey, UniProt B0LAJ3 25-170) (assay: SPR, antibody captured).
T2 construct: also called cPD-1
T2 sequence (B0LAJ3 entry or part of it limits assumed, form in doubt): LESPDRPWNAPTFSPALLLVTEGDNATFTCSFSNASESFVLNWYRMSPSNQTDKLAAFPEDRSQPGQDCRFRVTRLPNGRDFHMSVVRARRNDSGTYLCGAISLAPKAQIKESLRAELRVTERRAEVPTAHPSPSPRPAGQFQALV

Row | koff | Binder
1 | 0.00338 s⁻¹ | B1

Each binder was assayed against T1, IL-2R CD122-CD132 on Jurkat-PD1+ CD122+ … (assay: cell-based or functional assay).

Row | EC50 value for pSTAT5 induction | Binder
2 | 0.2 nM | B2
3 | 0.24 nM | B3
4 | 70 pM | B4
5 | 0.27 nM | B5
6 | 0.22 nM | B6
7 | 0.12 nM | B7
